Columns and labels:
[1] = biological target: Xmad1 (Xenopus laevis (endogenous in egg extracts)); assay: co-IP
[2] = biological target: Xmad2 (Xenopus laevis (endogenous in egg extracts)); assay: co-IP

Row | Substance | percent of Xmad2 bound with Xmad1 [1] | percent of Xmad1 removed by immunodepletion of Xmad2 [2]
1 | Xmad2 (natural protein) | 40% | –
2 | Xmad1 (natural protein) | – | > 95%

Reference: article PMC2132829
